Values of other authors as cited in PMC7106946.

Molecular target: Asp46 (UniProt position 303, VILFMDRNLEQ)
Experiment: NMR

For “Hedgehog protein autoprocessing domain (HhC) Hint domain, wild type at position 46 (Drosophila melanogaster)”, the pKa is given as 5.8.
